Source: patent US7226755

T1: recombinant GST fusion of the Tie-2 intracellular kinase domain
T1 chain: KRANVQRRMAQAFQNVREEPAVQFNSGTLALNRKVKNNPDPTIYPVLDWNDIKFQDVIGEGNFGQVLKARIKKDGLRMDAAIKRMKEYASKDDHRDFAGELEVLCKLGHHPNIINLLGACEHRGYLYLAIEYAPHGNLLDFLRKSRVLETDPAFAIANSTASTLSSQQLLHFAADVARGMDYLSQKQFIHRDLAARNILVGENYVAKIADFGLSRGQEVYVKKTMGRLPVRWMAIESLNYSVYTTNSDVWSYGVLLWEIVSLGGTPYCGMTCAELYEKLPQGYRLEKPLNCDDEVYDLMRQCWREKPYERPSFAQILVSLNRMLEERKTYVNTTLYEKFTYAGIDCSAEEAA

B1: recombinant HPTPbeta catalytic domain (protein)
chain: GDRPLSVHLNLGQKGNRKTSCPIKINQFEGHFMKLQADSNYLLSKEYEELKDVGRNQSCDIALLPENRGKNRYNNILPYDATRVKLSNVDDDPCSDYINASYIPGNNFRREYIVTQGPLPGTKDDFWKMVWEQNVHNIVMVTQCVEKGRVKCDHYWPADQDSLYYGDLILQMLSESVLPEWTIREFKICGEEQLDAHRLIRHFHYTVWPDHGVPETTQSLIQFVRTVRDYINRSPGAGPTVVHCSAGVGRTGTFIALDRILQQLDSKDSVDIYGAVHDLRLHRVHMVQTECQYVYLHQCVRDVLRARKLRSEQHHHHHH
B2: full length HPTPbeta protein (splice variant lacking FNIII repeat 5) (protein)
chain: EPERCNFTLAESKASSHSVSIQWRILGSPCNFSLIYSSDTLGAALCPTFRIDNTTYGCNLQDLQAGTIYNFKIISLDEERTVVLQTDPLPPARFGVSKEKTTSTGLHVWWTPSSGKVTSYEVQLFDENNQKIQGVQIQESTSWNEYTFFNLTAGSKYNIAITAVSGGKRSFSVYTNGSTVPSPVKDIGISTKANSLLISWSHGSGNVERYRLMLMDKGILVHGGVVDKHATSYAFHGLTPGYLYNLTVMTEAAGLQNYRWKLVRTAPMEVSNLKVTNDGSLTSLKVKWQRPPGNVDSYNITLSHKGTIKESRVLAPWITETHFKELVPGRLYQVTVSCVSGELSAQKMAVGRTFPLAVLQLRVKHANETSLSIMWQTPVAEWEKYIISLADRDLLLIHKSLSKDAKEFTFTDLVPGRKYMATVTSISGDLKNSSSVKGRTVPAQVTDLHVANQGMTSSLFTNWTQAQGDVEFYQVLLIHENVVIKNESISSETSRYSFHSLKSGSLYSVVVTTVSGGISSRQVVVEGRTVPSSVSGVTVNNSGRNDYLSVSWLLAPGDVDNYEVTLSHDGKVVQSLVIAKSVRECSFSSLTPGRLYTVTITTRSGKYENHSFSQERTVPDKVQGVSVSNSARSDYLRVSWVHATGDFDHYEVTIKNKNNFIQTKSIPKSENECVFVQLVPGRLYSVTVTTKSGQYEANEQGNGRTIPEPVKDLTLRNRSTEDLHVTWSGANGDVDQYEIQLLFNDMKVFPPFHLVNTATEYRFTSLTPGRQYKILVLTISGDVQQSAFIEGFTVPSAVKNIHISPNGATDSLTVNWTPGGGDVDSYTVSAFRHSQKVDSQTIPKHVFEHTFHRLEAGEQYQIMIASVSGSLKNQINVVGRTVPASVQGVIADNAYSSYSLIVSWQKAAGVAERYDILLLTENGILLRNTSEPATTKQHKFEDLTPGKKYKIQILTVSGGLFSKEAQTEGRTVPAAVTDLRITENSTRHLSFRWTASEGELSWYNIFLYNPDGNLQERAQVDPLVQSFSFQNLLQGRMYKMVIVTHSGELSNESFIFGRTVPASVSHLRGSNRNTTDSLWFNWSPASGDFDFYELILYNPNGTKKENWKDKDLTEWRFQGLVPGRKYVLWVVTHSGDLSNKVTAESRTAPSPPSLMSFADIANTSLAITWKGPPDWTDYNDFELQWLPRDALTVFNPYNNRKSEGRIVYGLRPGRSYQFNVKTVSGDSWKTYSKPIFGSVRTKPDKIQNLHCRPQNSTAIACSWIPPDSDFDGYSIECRKMDTQEVEFSRKLEKEKSLLNIMMLVPHKRYLVSIKVQSAGMTSEVVEDSTITMIDRPPPPPPHIRVNEKDVLISKSSINFTVNCSWFSDTNGAVKYFTVVVREADGSDELKPEQQHPLPSYLEYRHNASIRVYQTNYFASKCAENPNSNSKSFNIKLGAEMESLGGKCDPTQQKFCDGPLKPHTAYRISIRAFTQLFDEDLKEFTKPLYSDTFFSLPITTESEPLFGAIEGVSAGLFLIGMLVAVVALLICRQKVSHGRERPSARLSIRRDRPLSVHLNLGQKGNRKTSCPIKINQFEGHFMKLQADSNYLLSKEYEELKDVGRNQSCDIALLPENRGKNRYNNILPYDATRVKLSNVDDDPCSDYINASYIPGNNFRREYIVTQGPLPGTKDDFWKMVWEQNVHNIVMVTQCVEKGRVKCDHYWPADQDSLYYGDLILQMLSESVLPEWTIREFKICGEEQLDAHRLIRHFHYTVWPDHGVPETTQSLIQFVRTVRDYINRSPGAGPTVVHCSAGVGRTGTFIALDRILQQLDSKDSVDIYGAVHDLRLHRVHMVQTECQYVYLHQCVRDVLRARKLRSEQENPLFPIYENVNPEYHRDPVYSRH

Experiments:
[1] = molecular target: T1, recombinant GST fusion of the Tie-2 …
[2] = molecular target: recombinant GST fusion of the VEGFR2 intracellular kinase domain
Sequence of recombinant GST fusion of the VEGFR2 intracellular kinase domain (chain, as listed by the source): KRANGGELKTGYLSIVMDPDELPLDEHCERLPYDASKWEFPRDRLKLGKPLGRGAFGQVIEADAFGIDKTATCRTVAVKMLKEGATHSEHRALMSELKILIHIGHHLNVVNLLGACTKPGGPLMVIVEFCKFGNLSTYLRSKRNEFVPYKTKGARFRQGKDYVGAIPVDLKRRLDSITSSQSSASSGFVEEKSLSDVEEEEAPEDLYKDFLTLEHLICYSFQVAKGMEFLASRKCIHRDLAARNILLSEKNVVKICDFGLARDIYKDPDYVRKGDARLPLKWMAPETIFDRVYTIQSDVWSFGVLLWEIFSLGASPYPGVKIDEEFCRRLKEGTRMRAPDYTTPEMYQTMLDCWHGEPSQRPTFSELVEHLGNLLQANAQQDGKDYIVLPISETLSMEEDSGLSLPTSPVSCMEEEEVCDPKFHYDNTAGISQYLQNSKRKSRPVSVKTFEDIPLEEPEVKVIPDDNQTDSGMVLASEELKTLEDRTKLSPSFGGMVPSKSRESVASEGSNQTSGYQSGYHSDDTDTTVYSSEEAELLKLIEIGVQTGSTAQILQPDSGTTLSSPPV

[3] = molecular target: full length human Tie-2 receptor
[4] = molecular target: full length human VEGF receptor type 2 (VEGFR2)
Sequence of full length human VEGF receptor type 2 (VEGFR2) (chain, as listed by the source): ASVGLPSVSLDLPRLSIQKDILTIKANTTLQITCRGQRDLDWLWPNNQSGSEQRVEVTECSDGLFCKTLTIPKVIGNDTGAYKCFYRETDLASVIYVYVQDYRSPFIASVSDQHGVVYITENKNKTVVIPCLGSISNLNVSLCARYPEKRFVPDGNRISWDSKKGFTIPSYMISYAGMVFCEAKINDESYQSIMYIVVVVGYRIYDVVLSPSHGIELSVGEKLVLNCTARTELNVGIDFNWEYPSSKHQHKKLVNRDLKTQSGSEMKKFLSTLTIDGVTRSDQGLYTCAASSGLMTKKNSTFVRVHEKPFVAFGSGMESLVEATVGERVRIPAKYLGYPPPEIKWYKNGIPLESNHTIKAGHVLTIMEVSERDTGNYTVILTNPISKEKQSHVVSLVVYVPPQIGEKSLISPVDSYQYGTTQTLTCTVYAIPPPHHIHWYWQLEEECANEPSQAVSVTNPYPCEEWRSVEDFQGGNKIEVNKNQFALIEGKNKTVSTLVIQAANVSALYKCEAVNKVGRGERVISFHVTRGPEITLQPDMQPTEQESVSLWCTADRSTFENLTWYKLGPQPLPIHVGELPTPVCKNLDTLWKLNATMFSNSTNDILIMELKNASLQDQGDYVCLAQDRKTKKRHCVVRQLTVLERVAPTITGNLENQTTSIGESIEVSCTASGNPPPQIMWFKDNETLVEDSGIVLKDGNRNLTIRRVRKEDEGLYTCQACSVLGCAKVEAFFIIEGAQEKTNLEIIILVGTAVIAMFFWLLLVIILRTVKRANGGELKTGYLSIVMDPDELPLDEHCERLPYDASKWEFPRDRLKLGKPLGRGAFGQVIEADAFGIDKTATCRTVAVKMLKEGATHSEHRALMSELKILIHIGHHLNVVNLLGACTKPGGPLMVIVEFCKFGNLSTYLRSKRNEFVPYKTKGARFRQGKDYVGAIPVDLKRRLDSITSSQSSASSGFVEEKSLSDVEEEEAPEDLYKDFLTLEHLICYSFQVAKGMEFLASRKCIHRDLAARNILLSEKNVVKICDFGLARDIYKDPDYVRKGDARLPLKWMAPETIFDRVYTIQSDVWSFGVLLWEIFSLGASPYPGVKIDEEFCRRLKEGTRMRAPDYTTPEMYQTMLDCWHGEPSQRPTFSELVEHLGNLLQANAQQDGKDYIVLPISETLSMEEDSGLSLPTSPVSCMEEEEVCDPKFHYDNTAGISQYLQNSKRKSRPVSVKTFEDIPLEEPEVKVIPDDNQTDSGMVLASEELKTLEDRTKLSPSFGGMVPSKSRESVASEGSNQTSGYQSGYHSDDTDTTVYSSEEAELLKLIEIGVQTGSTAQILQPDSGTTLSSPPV

Protein | anti-phosphotyrosine western blotting of the bead-bound autophosphorylated kinase domain after 2 hours at 37 C with increasing amounts of recombinant HPTPbeta [1] | anti-phosphotyrosine western blotting of the bead-bound autophosphorylated kinase domain after 2 hours at 37 C with increasing amounts of recombinant HPTPbeta [2] | ligand-induced phosphorylation of the endogenous receptor (anti-phosphotyrosine western blot of immunoprecipitated receptor) in Ang1 stimulated HUVECs [3] | ligand-induced phosphorylation of the endogenous receptor (anti-phosphotyrosine western blot of immunoprecipitated receptor) in VEGFA stimulated HUVECs [4]
B1 | a dose dependent decrease in the phosphorylation of recombinant VEGFR2 and Tie-2 | a dose dependent decrease in the phosphorylation of recombinant VEGFR2 and Tie-2 | – | –
B2 | – | – | adenoviral overexpression of HPTPbeta in endothelial cells decreased in ligand-induced phosphorylation of the endogenous VEGFR2 and Tie-2 receptors | adenoviral overexpression of HPTPbeta in endothelial cells decreased in ligand-induced phosphorylation of the endogenous VEGFR2 and Tie-2 receptors
